Read-outs that look alike come from different tables or passages of the source. Each block holds one binder with its values, some of them ahead of it.
What was measured:
[1] = target: T1, human CDH3 (Cadherin-3, P-Cadherin) (human, UniProt P22223 108-829); test: cell-based or functional assay
[2] = target: T1, human CDH3 (Cadherin-3, P-Cadherin); test: cell-based or functional assay; remark: listed apart in the source
mouse MSLN protein = target: T2, mouse MSLN protein (mouse, UniProt Q61468 298-600); test: flow cytometry on transfected CHO cells
T2 construct: whole, on cells; also called full-length mouse MSLN
T2 sequence (looked up): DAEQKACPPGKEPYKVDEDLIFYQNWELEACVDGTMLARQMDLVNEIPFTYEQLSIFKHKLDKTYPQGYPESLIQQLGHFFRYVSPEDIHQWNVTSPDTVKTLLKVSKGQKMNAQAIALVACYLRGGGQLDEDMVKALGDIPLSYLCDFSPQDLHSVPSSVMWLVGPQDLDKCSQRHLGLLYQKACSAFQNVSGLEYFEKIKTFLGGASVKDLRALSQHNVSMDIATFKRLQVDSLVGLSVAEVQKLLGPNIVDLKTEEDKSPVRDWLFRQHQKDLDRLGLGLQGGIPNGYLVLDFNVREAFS

[3] = target: T1, human CDH3 (Cadherin-3, P-Cadherin); test: cell-based or functional assay; remark: listed apart in the source
[4] = target: T1, human CDH3 (Cadherin-3, P-Cadherin); test: cell-based or functional assay; remark: listed apart in the source
[5] = target: T1, human CDH3 (Cadherin-3, P-Cadherin); test: cell-based or functional assay; remark: listed apart in the source
[6] = target: T1, human CDH3 (Cadherin-3, P-Cadherin); test: cell-based or functional assay; remark: listed apart in the source
[7] = target: T1, human CDH3 (Cadherin-3, P-Cadherin); test: cell-based or functional assay; remark: listed apart in the source
[8] = target: T1, human CDH3 (Cadherin-3, P-Cadherin); test: cell-based or functional assay; remark: listed apart in the source
human MSLN (mesothelin) = human MSLN (mesothelin) (human, UniProt Q13421 37-598); test: cell-based or functional assay

binding result (mouse MSLN protein): no binding (tested: 5 µg/mL)
B1: CH3 15-E11 VAG CC×I2L×G4×scFc×MS 15-B12 CC×I2L clipopt ID (SEQ ID NO 434) (bispecific antibody)
chain: QVQLVQSGAEVKKPGASVKVSCKASGYTFTNYWMNWVRQAPGQCLEWMGNIAYGVAGTNYNQKFQGRVTMTVDTSSSTAYMELSRLRSDDTAVYYCATRYFYVMDYWGQGTLVTVSSGGGGQGGGGQGGGGQDIQMTQSPSSLSASVGDRVTITCRASQDISNYLNWYQQKPGKVPKLLIYYTSRLHSGVPSRFSGSGSGTDFTLTISSLQPEDVATYYCVQYAQFPLTFGCGTKVEIKSGGGGQEVQLVESGGGLVQPGGSLKLSCAASGFTFNKYAMNWVRQAPGKGMEWVARIRSKYNNYATYYADAVKDRFTISRDDSKNTLYLQMNNLKTEDTAVYYCVRAGNFGSSYISYFAYWGQGTLVTVSSGGGGQGGGGQGGGGQQTVVTQEPSLTVSPGGTVTITCGSSTGAVTSGNYPNWIQKKPGQAPRGLIGGTKFLAPGTPARFSGSLEGGKAALTLSGVQPEDEAEYYCVLYYSNRWVFGSGTKLTVLGGGGCPPCPAPELLGGPSVFLFPPKPKDTLMISRTPEVTCVVVDVSHEEPEVKFNWYVDGVEVHNAKTKPCEEQYGSTYRCVSVLTVLHQDWLNGKEYKCKVSNKALPAPIEKTISKAKGQPREPQVYTLPPSREEMTKNQVSLTCLVKGFYPSDIAVEWESNGQPENNYKTTPPVLDSDGSFFLYSKLTVDKSRWQQGNVFSCSVMHEALHNHYTQKSLSLSPGKGGGGQGGGGQGGGGQGGGGQGGGGQGGGGQCPPCPAPELLGGPSVFLFPPKPKDTLMISRTPEVTCVVVDVSHEEPEVKFNWYVDGVEVHNAKTKPCEEQYGSTYRCVSVLTVLHQDWLNGKEYKCKVSNKALPAPIEKTISKAKGQPREPQVYTLPPSREEMTKNQVSLTCLVKGFYPSDIAVEWESNGQPENNYKTTPPVLDSDGSFFLYSKLTVDKSRWQQGNVFSCSVMHEALHNHYTQKSLSLSPGKGGGGQVQLQESGPGLVKPSETLSLTCTVSGGSISSSSYFWGWIRQPPGKCLEWIGNIYYSGSSNYNPSLKSRVTISVDTSKNQFSLKLSSVTAADTAVYYCARLPRGDRDAFDIWGQGTMVTVSSGGGGQGGGGQGGGGQDIVMTQSPSSLSASVGDRVTITCRASQGISNYLAWYQQKPGKVPKLLIYAASTLQSGVPSRFSGSGSGTDFTLTISSLQPEDFATYYCQQSYSTPFTFGCGTKVEIKSGGGGQEVQLVESGGGLVQPGGSLKLSCAASGFTFNKYAMNWVRQAPGKGMEWVARIRSKYNNYATYYADAVKDRFTISRDDSKNTLYLQMNNLKTEDTAVYYCVRAGNFGSSYISYFAYWGQGTLVTVSSGGGGQGGGGQGGGGQQTVVTQEPSLTVSPGGTVTITCGSSTGAVTSGNYPNWIQKKPGQAPRGLIGGTKFLAPGTPARFSGSLEGGKAALTLSGVQPEDEAEYYCVLYYSNRWVFGSGTKLTVL
notes: single-chain multitargeting CDH3 x CD3 - scFc - MSLN x CD3 engager; also called K3T
cytotoxicity EC50, GSU KO MSLN cells [1]: 0.245 nM | cytotoxicity EC50, HCT 116 KO MSLN cells [2]: 0.0015 nM

binding result (mouse MSLN protein): no binding (tested: 5 µg/mL)
B2: CH3 15-E11 CC×I2L×G4×scFc×G4×MS 15-B12 CC×I2L_GQ (SEQ ID NO 251) (bispecific antibody)
chain: QVQLVQSGAEVKKPGASVKVSCKASGYTFTNYWMNWVRQAPGQCLEWMGNIAYGVKGTNYNQKFQGRVTMTVDTSSSTAYMELSRLRSDDTAVYYCATRYFYVMDYWGQGTLVTVSSGGGGQGGGGQGGGGQDIQMTQSPSSLSASVGDRVTITCRASQDISNYLNWYQQKPGKVPKLLIYYTSRLHSGVPSRFSGSGSGTDFTLTISSLQPEDVATYYCVQYAQFPLTFGCGTKVEIKSGGGGQEVQLVESGGGLVQPGGSLKLSCAASGFTFNKYAMNWVRQAPGKGMEWVARIRSKYNNYATYYADAVKDRFTISRDDSKNTLYLQMNNLKTEDTAVYYCVRAGNFGSSYISYFAYWGQGTLVTVSSGGGGQGGGGQGGGGQQTVVTQEPSLTVSPGGTVTITCGSSTGAVTSGNYPNWIQKKPGQAPRGLIGGTKFLAPGTPARFSGSLEGGKAALTLSGVQPEDEAEYYCVLYYSNRWVFGSGTKLTVLGGGGCPPCPAPELLGGPSVFLFPPKPKDTLMISRTPEVTCVVVDVSHEEPEVKFNWYVDGVEVHNAKTKPCEEQYGSTYRCVSVLTVLHQDWLNGKEYKCKVSNKALPAPIEKTISKAKGQPREPQVYTLPPSREEMTKNQVSLTCLVKGFYPSDIAVEWESNGQPENNYKTTPPVLDSDGSFFLYSKLTVDKSRWQQGNVFSCSVMHEALHNHYTQKSLSLSPGKGGGGQGGGGQGGGGQGGGGQGGGGQGGGGQCPPCPAPELLGGPSVFLFPPKPKDTLMISRTPEVTCVVVDVSHEEPEVKFNWYVDGVEVHNAKTKPCEEQYGSTYRCVSVLTVLHQDWLNGKEYKCKVSNKALPAPIEKTISKAKGQPREPQVYTLPPSREEMTKNQVSLTCLVKGFYPSDIAVEWESNGQPENNYKTTPPVLDSDGSFFLYSKLTVDKSRWQQGNVFSCSVMHEALHNHYTQKSLSLSPGKGGGGQVQLQESGPGLVKPSETLSLTCTVSGGSISSSSYFWGWIRQPPGKCLEWIGNIYYSGSSNYNPSLKSRVTISVDTSKNQFSLKLSSVTAADTAVYYCARLPRGDRDAFDIWGQGTMVTVSSGGGGQGGGGQGGGGQDIVMTQSPSSLSASVGDRVTITCRASQGISNYLAWYQQKPGKVPKLLIYAASTLQSGVPSRFSGSGSGTDFTLTISSLQPEDFATYYCQQSYSTPFTFGCGTKVEIKSGGGGQEVQLVESGGGLVQPGGSLKLSCAASGFTFNKYAMNWVRQAPGKGMEWVARIRSKYNNYATYYADAVKDRFTISRDDSKNTLYLQMNNLKTEDTAVYYCVRAGNFGSSYISYFAYWGQGTLVTVSSGGGGQGGGGQGGGGQQTVVTQEPSLTVSPGGTVTITCGSSTGAVTSGNYPNWIQKKPGQAPRGLIGGTKFLAPGTPARFSGSLEGGKAALTLSGVQPEDEAEYYCVLYYSNRWVFGSGTKLTVL
notes: single-chain multitargeting engager; also called F5Q
cytotoxicity EC50, GSU KO MSLN cells [3]: 3.24 nM | cytotoxicity EC50, HCT 116 KO MSLN cells [4]: 0.0087 nM | cytotoxicity EC50, E:T ratio 1:1, GSU KO MSLN cells [5]: 0.322 nM | cytotoxicity EC50, E:T ratio 1:2, GSU KO MSLN cells [5]: 0.341 nM | cytotoxicity EC50, E:T ratio 10:1, GSU KO MSLN cells [5]: 0.098 nM | cytotoxicity EC50, GSU KO MSLN cells [6]: 3.24 nM | cytotoxicity EC50, HCT 116 KO MSLN cells [7]: 0.0087 nM

B3: MS 15-B12 CC × 6H10.09 × (G4) × heFc (A) * heFc (B) × (G4) × CH3 15-E11 CC × 6H10.09 (bispecific antibody)
chain 1: not shown
chain 2: DKTHTCPPCPAPELLGGPSVFLFPPKPKDTLMISRTPEVTCVVVDVSHEDPEVKFNWYVDGVEVHNAKTKPCEEQYGSTYRCVSVLTVLHQDWLNGKEYKCKVSNKALPAPIEKTISKAKGQPREPQVYTLPPSRKEMTKNQVSLTCLVKGFYPSDIAVEWESNGQPENNYKTTPPVLKSDGSFFLYSKLTVDKSRWQQGNVFSCSVMHEALHNHYTQKSLSLSPGKGGGGQVQLVQSGAEVKKPGASVKVSCKASGYTFTNYWMNWVRQAPGQCLEWMGNIAYGVKGTNYNQKFQGRVTMTVDTSSSTAYMELSRLRSDDTAVYYCATRYFYVMDYWGQGTLVTVSSGGGGSGGGGSGGGGSDIQMTQSPSSLSASVGDRVTITCRASQDISNYLNWYQQKPGKVPKLLIYYTSRLHSGVPSRFSGSGSGTDFTLTISSLQPEDVATYYCVQYAQFPLTFGCGTKVEIKSGGGGSEVQLVESGGGLVQPGGSLKLSCAASGFTFNKYAMNWVRQAPGKGMEWVARIRSKYNNYATYYADAVKDRFTISRDDSKNTLYLQMNNLKTEDTAVYYCVRAGNFGSSYISYFAYWGQGTLVTVSSGGGGSGGGGSGGGGSQTVVTQEPSLTVSPGGTVTITCGSSTGAVTSGNYPNWIQKKPGQAPRGLIGGTKFLAPGTPARFSGSLEGGKAALTLSGVQPEDEAEYYCVLYYSNRWVFGSGTKLTVL
cytotoxicity EC50, GSU KO MSLN cells [8]: 0.533 nM | cytotoxicity EC50, GSU KO CDH3 cells (human MSLN (mesothelin)): 0.391 nM

Reference: patent US20240209078A1 (Amgen, published 2024)
